# Reference: the supplement of paper PMC10567573
# B1: LMNB1 (parent)
# chain: LYKEELEQTYHAKLENARLSSEMN
# B2: ESRRA (parent)
# chain: LGVAQRSLPLQDELAFAEDLVLDE
# Variants of: B1
# Assay: protein stability index of a GFP-peptide fusion (GPS, HEK-293T) (PSI 1-6); higher = more stable
# Details: c terminus: a fixed tail appended
# 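Also: lentivirally expressed fusions sorted by FACS into six bins by GFP to DsRed ratio, PSI derived from sequencing read proportions per bin multiplied by bin number.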
row,Variant,protein stability index
1,LYTEELEQTYHAKLENARLSSEMN,2.81
2,LYEEELEQTYHAKLENARLSSEMN,2.47
3,LYQEELEQTYHAKLENARLSSEMN,2.56
4,LYCEELEQTYHAKLENARLSSEMN,2.64
5,LYHEELEQTYHAKLENARLSSEMN,2.91
6,LYYEELEQTYHAKLENARLSSEMN,2.34
7,LYMEELEQTYHAKLENARLSSEMN,1.7
8,LYVEELEQTYHAKLENARLSSEMN,1.67
9,LYAEELEQTYHAKLENARLSSEMN,1.94
10,LYDEELEQTYHAKLENARLSSEMN,3.56
11,LYIEELEQTYHAKLENARLSSEMN,2.19
12,LYGEELEQTYHAKLENARLSSEMN,2.73
13,LYNEELEQTYHAKLENARLSSEMN,3.29
14,LYWEELEQTYHAKLENARLSSEMN,1.61
15,LYLEELEQTYHAKLENARLSSEMN,1.79
16,LYPEELEQTYHAKLENARLSSEMN,3.09
17,LYFEELEQTYHAKLENARLSSEMN,1.77
18,LYSEELEQTYHAKLENARLSSEMN,2.65
19,LYREELEQTYHAKLENARLSSEMN,2.9
20,SYKEELEQTYHAKLENARLSSEMN,2.9
21,WYKEELEQTYHAKLENARLSSEMN,2.21
22,TYKEELEQTYHAKLENARLSSEMN,2.85

row,Variant,protein stability index
1,NYKEELEQTYHAKLENARLSSEMN,2.98
2,YYKEELEQTYHAKLENARLSSEMN,3.24
3,FYKEELEQTYHAKLENARLSSEMN,2.27
4,DYKEELEQTYHAKLENARLSSEMN,4.03
5,KYKEELEQTYHAKLENARLSSEMN,2.97
6,HYKEELEQTYHAKLENARLSSEMN,3.19
7,GYKEELEQTYHAKLENARLSSEMN,3.53
8,VYKEELEQTYHAKLENARLSSEMN,2.75
9,AYKEELEQTYHAKLENARLSSEMN,2.92
10,EYKEELEQTYHAKLENARLSSEMN,3.99
11,RYKEELEQTYHAKLENARLSSEMN,2.91
12,IYKEELEQTYHAKLENARLSSEMN,2.5
13,QYKEELEQTYHAKLENARLSSEMN,3.6
14,MYKEELEQTYHAKLENARLSSEMN,3.06
15,PYKEELEQTYHAKLENARLSSEMN,4.45
16,CYKEELEQTYHAKLENARLSSEMN,3.14
17,LYKKELEQTYHAKLENARLSSEMN,2.46
18,LYKFELEQTYHAKLENARLSSEMN,2.37
19,LYKHELEQTYHAKLENARLSSEMN,2.94
20,LYKCELEQTYHAKLENARLSSEMN,2.38
21,LYKAELEQTYHAKLENARLSSEMN,2.7
22,LYKLELEQTYHAKLENARLSSEMN,2.17

row,Variant,protein stability index
1,LYKGELEQTYHAKLENARLSSEMN,2.38
2,LYKIELEQTYHAKLENARLSSEMN,2.02
3,LYKDELEQTYHAKLENARLSSEMN,2.69
4,LHKEELEQTYHAKLENARLSSEMN,4
5,LQKEELEQTYHAKLENARLSSEMN,4.21
6,LFKEELEQTYHAKLENARLSSEMN,1.96
7,LAKEELEQTYHAKLENARLSSEMN,2.91
8,LCKEELEQTYHAKLENARLSSEMN,2.78
9,LMKEELEQTYHAKLENARLSSEMN,2.31
10,LKKEELEQTYHAKLENARLSSEMN,3.27
11,LLKEELEQTYHAKLENARLSSEMN,3.04
12,LRKEELEQTYHAKLENARLSSEMN,3.48
13,LTKEELEQTYHAKLENARLSSEMN,4.08
14,LEKEELEQTYHAKLENARLSSEMN,4.37
15,LVKEELEQTYHAKLENARLSSEMN,1.77
16,LGKEELEQTYHAKLENARLSSEMN,4.15
17,LWKEELEQTYHAKLENARLSSEMN,1.5
18,LIKEELEQTYHAKLENARLSSEMN,2.09
19,LSKEELEQTYHAKLENARLSSEMN,4.12
20,LDKEELEQTYHAKLENARLSSEMN,4.18
21,LNKEELEQTYHAKLENARLSSEMN,3.46
22,LPKEELEQTYHAKLENARLSSEMN,3.06

# Variants of: B2
# Assay: as above
# Details: c terminus: a fixed tail appended
row,Variant,protein stability index
1,LGVAQRSLPLQDELAFAEDLVIDE,3.55
2,LGVAQRSLPLQDELAFAEDLVSDE,5.02
3,LGVAQRSLPLQDELAFAEDLVVDE,4.14
4,LGVAQRSLPLQDELAFAEDLVNDE,4.69
5,LGVAQRSLPLQDELAFAEDLVCDE,3.76
6,LGVAQRSLPLQDELAFAEDLVEDE,5.71
7,LGVAQRSLPLQDELAFAEDLVDDE,5.13
8,LGVAQRSLPLQDELAFAEDLVMDE,4.2
9,LGVAQRSLPLQDELAFAEDLVGDE,5.51
10,LGVAQRSLPLQDELAFAEDLVFDE,3.95
11,LGVAQRSLPLQDELAFAEDLVQDE,3.81
12,LGVAQRSLPLQDELAFAEDLVRDE,2.89
13,LGVAQRSLPLQDELAFAEDLVKDE,2.74
14,LGVAQRSLPLQDELAFAEDLVYDE,3.98
15,LGVAQRSLPLQDELAFAEDLVHDE,3.52
16,LGVAQRSLPLQDELAFAEDLVADE,3.96
17,LGVAQRSLPLQDELAFAEDLVWDE,3.85
18,LGVAQRSLPLQDELAFAEDLVTDE,5.18
19,LGVAQRSLPLQDELAFAEDLVPDE,5.34
20,LGVAQRSLPLQDELAFAEDLVLGE,1.72
21,LGVAQRSLPLQDELAFAEDLVLVE,1.88
22,LGVAQRSLPLQDELAFAEDLVLIE,1.51
23,LGVAQRSLPLQDELAFAEDLVLFE,5.28
24,LGVAQRSLPLQDELAFAEDLVLME,2.01
25,LGVAQRSLPLQDELAFAEDLVLQE,1.74

row,Variant,protein stability index
1,LGVAQRSLPLQDELAFAEDLVLHE,2.34
2,LGVAQRSLPLQDELAFAEDLVLLE,2.64
3,LGVAQRSLPLQDELAFAEDLVLYE,2.3
4,LGVAQRSLPLQDELAFAEDLVLNE,1.88
5,LGVAQRSLPLQDELAFAEDLVLSE,2.58
6,LGVAQRSLPLQDELAFAEDLVLCE,2.38
7,LGVAQRSLPLQDELAFAEDLVLTE,3.21
8,LGVAQRSLPLQDELAFAEDLVLRE,2.51
9,LGVAQRSLPLQDELAFAEDLVLWE,2.1
10,LGVAQRSLPLQDELAFAEDLVLEE,2.65
11,LGVAQRSLPLQDELAFAEDLVLKE,2.41
12,LGVAQRSLPLQDELAFAEDLVLPE,4.49
13,LGVAQRSLPLQDELAFAEDLVLAE,3.11
14,LGVAQRSLPLQDELAFAECLVLDE,1.82
15,LGVAQRSLPLQDELAFAEALVLDE,1.89
16,LGVAQRSLPLQDELAFAEKLVLDE,2.49
17,LGVAQRSLPLQDELAFAESLVLDE,2.21
18,LGVAQRSLPLQDELAFAEVLVLDE,1.76
19,LGVAQRSLPLQDELAFAEPLVLDE,4.89
20,LGVAQRSLPLQDELAFAETLVLDE,1.91
21,LGVAQRSLPLQDELAFAEGLVLDE,2.05
22,LGVAQRSLPLQDELAFAEHLVLDE,1.83
23,LGVAQRSLPLQDELAFAEWLVLDE,2.23
24,LGVAQRSLPLQDELAFAEQLVLDE,3.58
25,LGVAQRSLPLQDELAFAEYLVLDE,2.03

row,Variant,protein stability index
1,LGVAQRSLPLQDELAFAERLVLDE,2.01
2,LGVAQRSLPLQDELAFAEILVLDE,1.94
3,LGVAQRSLPLQDELAFAEMLVLDE,2.43
4,LGVAQRSLPLQDELAFAENLVLDE,1.76
5,LGVAQRSLPLQDELAFAEELVLDE,2.34
6,LGVAQRSLPLQDELAFAELLVLDE,2.16
7,LGVAQRSLPLQDELAFAEFLVLDE,2.56
8,LGVAQRSLPLQDELAFAEDLHLDE,5.28
9,LGVAQRSLPLQDELAFAEDLMLDE,4.49
10,LGVAQRSLPLQDELAFAEDLNLDE,5.49
11,LGVAQRSLPLQDELAFAEDLELDE,5.31
12,LGVAQRSLPLQDELAFAEDLLLDE,3.96
13,LGVAQRSLPLQDELAFAEDLALDE,5.06
14,LGVAQRSLPLQDELAFAEDLCLDE,4.31
15,LGVAQRSLPLQDELAFAEDLWLDE,4.03
16,LGVAQRSLPLQDELAFAEDLRLDE,4.83
17,LGVAQRSLPLQDELAFAEDLFLDE,4.63
18,LGVAQRSLPLQDELAFAEDLYLDE,4.61
19,LGVAQRSLPLQDELAFAEDLDLDE,5.76
20,LGVAQRSLPLQDELAFAEDLPLDE,5.27
21,LGVAQRSLPLQDELAFAEDLSLDE,4.43
22,LGVAQRSLPLQDELAFAEDLGLDE,5.31
23,LGVAQRSLPLQDELAFAEDLQLDE,5.24
24,LGVAQRSLPLQDELAFAEDLKLDE,5.28
25,LGVAQRSLPLQDELAFAEDLTLDE,5.39

row,Variant,protein stability index
1,LGVAQRSLPLQDELAFAEDLILDE,1.56
2,LGVAQRSLPLQDELAFARDLVLDE,5.04
3,LGVAQRSLPLQDELAFAQDLVLDE,4.34
4,LGVAQRSLPLQDELAFAWDLVLDE,3.11
5,LGVAQRSLPLQDELAFAYDLVLDE,3.48
6,LGVAQRSLPLQDELAFAPDLVLDE,4.64
7,LGVAQRSLPLQDELAFATDLVLDE,4.81
8,LGVAQRSLPLQDELAFAVDLVLDE,3.65
9,LGVAQRSLPLQDELAFASDLVLDE,4.4
10,LGVAQRSLPLQDELAFAEDLVLDR,3.38
11,LGVAQRSLPLQDELAFAEDLVLDA,1.89
12,LGVAQRSLPLQDELAFAEDLVLDY,2.53
13,LGVAQRSLPLQDELAFAEDLVLDC,1.66
14,LGVAQRSLPLQDELAFAEDLVLDI,3.34
15,LGVAQRSLPLQDELAFAEDLVLDD,4.07
16,LGVAQRSLPLQDELAFAEDLVLDT,3.11
17,LGVAQRSLPLQDELAFAEDLVLDP,3.92
18,LGVAQRSLPLQDELAFAEDLVLDS,3.13
19,LGVAQRSLPLQDELAFAEDLVLDM,2.95
20,LGVAQRSLPLQDELAFAEDLVLDF,2.42
21,LGVAQRSLPLQDELAFAEDLVLDH,2.57
22,LGVAQRSLPLQDELAFAEDLVLDK,4.02
23,LGVAQRSLPLQDELAFAEDLVLDV,2.21
24,LGVAQRSLPLQDELAFAEDLVLDW,2.21
25,LGVAQRSLPLQDELAFAEDLVLDN,3.24

row,Variant,protein stability index
1,LGVAQRSLPLQDELAFAEDLVLDL,2.3
2,LGVAQRSLPLQDELAFAEDLVLDG,4.13
3,LGVAQRSLPLQDELAFAEDLVLDQ,3.67
4,LGVAQRSLPLQDELAFAEDFVLDE,4.98
5,LGVAQRSLPLQDELAFAEDMVLDE,2.16
6,LGVAQRSLPLQDELAFAEDCVLDE,2.51
7,LGVAQRSLPLQDELAFAEDEVLDE,3.12
8,LGVAQRSLPLQDELAFAEDIVLDE,3.18
9,LGVAQRSLPLQDELAFAEDTVLDE,5.16
10,LGVAQRSLPLQDELAFAEDDVLDE,5.36
11,LGVAQRSLPLQDELAFAEDVVLDE,3.67
12,LGVAQRSLPLQDELAFAEDAVLDE,4.42
13,LGVAQRSLPLQDELAFAEDKVLDE,4.98
14,LGVAQRSLPLQDELAFAEDNVLDE,4.85
15,LGVAQRSLPLQDELAFAEDRVLDE,4.19
16,LGVAQRSLPLQDELAFAEDSVLDE,4.4
17,LGVAQRSLPLQDELAFAEDPVLDE,5.75
18,LGVAQRSLPLQDELAFAEDWVLDE,4.82
19,LGVAQRSLPLQDELAFAEDHVLDE,4.81
20,LGVAQRSLPLQDELAFAEDGVLDE,5.51
21,LGVAQRSLPLQDELAFAEDQVLDE,4.21
22,LGVAQRSLPLQDELAFAEDYVLDE,4.67
